# Target: HIF1α (hypoxia-inducible factor 1 alpha) (UniProt Q16665)
# Experiment: cell-based or functional assay
substance,measurement,value
"EGL nine (C.elegans) homolog 3 (EGLN3), full length (from UniProt Q9H6Z9 1-239)","HIF1α activity measured in Luciferase units from the HRE-Luc reporter, 293T cells in normoxia, co-transfected with CMV-HIF and CMV-SVFL1 (CMV-HIF with HRE-Luc alone: 20953 Luciferase units) (Luciferase units)",918

# — patent publication US20030203372A1, “Analysis method” (priority 2000, published 2003)
